These results are taken from the supplement of paper PMC10567573.

B1: TRAF3IP2 (parent)
chain: YGHDYPRAAYQQVIQPALPGQPLP
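Note: lentivirally expressed fusions sorted by FACS into six bins by GFP to DsRed ratio, PSI derived from sequencing read proportions per bin multiplied by bin number.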

The variants in the data set derive from B1. Briefly: protein stability index of a GFP-peptide fusion (GPS, HEK-293T) (PSI 1-6); higher = more stable. Conditions: c terminus: a fixed tail appended.
As to YGFDYPRAAYQQVIQPALPGQPLP, the protein stability index worked out at 2.08. YGNDYPRAAYQQVIQPALPGQPLP: the protein stability index was determined as 1.83. Under YGDDYPRAAYQQVIQPALPGQPLP stands 2.02. Under YGGDYPRAAYQQVIQPALPGQPLP stands 4.19; under YGCDYPRAAYQQVIQPALPGQPLP, 1.86.

For the variant YGPDYPRAAYQQVIQPALPGQPLP, the protein stability index is 4.18. Under YGWDYPRAAYQQVIQPALPGQPLP stands 1.69; under YGEDYPRAAYQQVIQPALPGQPLP, 2.5. Under YGADYPRAAYQQVIQPALPGQPLP stands 2.05. Under YGRDYPRAAYQQVIQPALPGQPLP stands 2.19.

In the case of YGVDYPRAAYQQVIQPALPGQPLP, the protein stability index is 2.4. Under YGTDYPRAAYQQVIQPALPGQPLP stands 1.73; under YGQDYPRAAYQQVIQPALPGQPLP, 2.04; under YGIDYPRAAYQQVIQPALPGQPLP, 1.83. Regarding YGYDYPRAAYQQVIQPALPGQPLP, the protein stability index was found to be 1.74. For YGLDYPRAAYQQVIQPALPGQPLP, the protein stability index stood at 1.86.

With YGSDYPRAAYQQVIQPALPGQPLP, the protein stability index was found to be 2.2. Under YGMDYPRAAYQQVIQPALPGQPLP stands 1.77. Under YGKDYPRAAYQQVIQPALPGQPLP stands 2.5; under YGHDSPRAAYQQVIQPALPGQPLP, 4.1; under YGHDGPRAAYQQVIQPALPGQPLP, 3.78. Under YGHDAPRAAYQQVIQPALPGQPLP stands 4.22; under YGHDDPRAAYQQVIQPALPGQPLP, 4.01; under YGHDMPRAAYQQVIQPALPGQPLP, 3.27. With YGHDPPRAAYQQVIQPALPGQPLP, the protein stability index amounted to 3.99. As for YGHDQPRAAYQQVIQPALPGQPLP, the protein stability index is 3.83.

Turning to YGHDWPRAAYQQVIQPALPGQPLP, the protein stability index amounted to 3.66. Under YGHDFPRAAYQQVIQPALPGQPLP stands 2.52. Under YGHDVPRAAYQQVIQPALPGQPLP stands 3.46; under YGHDKPRAAYQQVIQPALPGQPLP, 3.86. Under YGHDIPRAAYQQVIQPALPGQPLP stands 3.43. Consider YGHDCPRAAYQQVIQPALPGQPLP, for which the protein stability index was determined as 3.5.

As to YGHDEPRAAYQQVIQPALPGQPLP, the protein stability index amounted to 3.88. YGHDRPRAAYQQVIQPALPGQPLP: the protein stability index turned out to be 3.49. Take YGHDNPRAAYQQVIQPALPGQPLP: the protein stability index was determined as 3.73.

As to YGHDTPRAAYQQVIQPALPGQPLP, the protein stability index was 3.79. For YGHDLPRAAYQQVIQPALPGQPLP, the protein stability index was 3.58. As for YGHDHPRAAYQQVIQPALPGQPLP, the protein stability index is 3.73.

As for YGHDYPRRAYQQVIQPALPGQPLP, the protein stability index was 3.2. Under YGHDYPRLAYQQVIQPALPGQPLP stands 2.7; under YGHDYPRKAYQQVIQPALPGQPLP, 2.14; under YGHDYPRWAYQQVIQPALPGQPLP, 2.64. Under YGHDYPRQAYQQVIQPALPGQPLP stands 2.65; under YGHDYPRNAYQQVIQPALPGQPLP, 2.3. Under YGHDYPRYAYQQVIQPALPGQPLP stands 2.24. Turning to YGHDYPRVAYQQVIQPALPGQPLP, the protein stability index came out at 2.59. Under YGHDYPRCAYQQVIQPALPGQPLP stands 1.94; under YGHDYPREAYQQVIQPALPGQPLP, 2.03.

Regarding YGHDYPRHAYQQVIQPALPGQPLP, the protein stability index was found to be 3.06. Under YGHDYPRSAYQQVIQPALPGQPLP stands 1.93; under YGHDYPRDAYQQVIQPALPGQPLP, 2.43.

Regarding YGHDYPRIAYQQVIQPALPGQPLP, the protein stability index was 2.57. In the case of YGHDYPRGAYQQVIQPALPGQPLP, the protein stability index came out at 2.18. Under YGHDYPRTAYQQVIQPALPGQPLP stands 2.8; under YGHDYPRMAYQQVIQPALPGQPLP, 1.76. With YGHDYPRPAYQQVIQPALPGQPLP, the protein stability index was 2.35. Under YGHDYPRFAYQQVIQPALPGQPLP stands 2.94; under YGHDYPRAPYQQVIQPALPGQPLP, 2.11; under YGHDYPRASYQQVIQPALPGQPLP, 1.71. On to YGHDYPRAVYQQVIQPALPGQPLP, for which the protein stability index was found to be 2.04.

For YGHDYPRATYQQVIQPALPGQPLP, the protein stability index was found to be 1.97.

For the variant YGHDYPRAFYQQVIQPALPGQPLP, the protein stability index was determined as 2.15. Under YGHDYPRAIYQQVIQPALPGQPLP stands 1.52; under YGHDYPRADYQQVIQPALPGQPLP, 2.74; under YGHDYPRAQYQQVIQPALPGQPLP, 2.2.

As for YGHDYPRARYQQVIQPALPGQPLP, the protein stability index stood at 2.4.

On to YGHDYPRAMYQQVIQPALPGQPLP, for which the protein stability index stood at 1.98. Under YGHDYPRACYQQVIQPALPGQPLP stands 2.34; under YGHDYPRANYQQVIQPALPGQPLP, 1.73.

YGHDYPRAHYQQVIQPALPGQPLP: the protein stability index was determined as 1.92. In the case of YGHDYPRAEYQQVIQPALPGQPLP, the protein stability index was determined as 2.38. Under YGHDYPRAKYQQVIQPALPGQPLP stands 2.4. Under YGHDYPRALYQQVIQPALPGQPLP stands 2.16.

For the variant YGHDYPRAGYQQVIQPALPGQPLP, the protein stability index worked out at 2.45. Under YGHDYPRAWYQQVIQPALPGQPLP stands 1.15. Under YGHDYPRAYYQQVIQPALPGQPLP stands 2.02.

Consider YGHDYPQAAYQQVIQPALPGQPLP, for which the protein stability index amounted to 2.56.

As for YGHDYPEAAYQQVIQPALPGQPLP, the protein stability index came out at 3.87. On to YGHDYPNAAYQQVIQPALPGQPLP, for which the protein stability index came out at 2.82. Under YGHDYPGAAYQQVIQPALPGQPLP stands 2.58; under YGHDYPDAAYQQVIQPALPGQPLP, 3.34.

Regarding YGHDYPIAAYQQVIQPALPGQPLP, the protein stability index was found to be 2.51. Regarding YGHDYPFAAYQQVIQPALPGQPLP, the protein stability index turned out to be 2.2. Under YGHDYPAAAYQQVIQPALPGQPLP stands 2.46; under YGHDYPVAAYQQVIQPALPGQPLP, 2.56; under YGHDYPMAAYQQVIQPALPGQPLP, 2.27.

As for YGHDYPLAAYQQVIQPALPGQPLP, the protein stability index was 2.27.

YGHDYPTAAYQQVIQPALPGQPLP: the protein stability index turned out to be 2.6. For YGHDYPSAAYQQVIQPALPGQPLP, the protein stability index stood at 2.65. Under YGHDYPYAAYQQVIQPALPGQPLP stands 2.28. Under YGHDYPHAAYQQVIQPALPGQPLP stands 2.36; under YGHDYPCAAYQQVIQPALPGQPLP, 2.44.

As to YGHDYPWAAYQQVIQPALPGQPLP, the protein stability index was 2.41. As for YGHDYPPAAYQQVIQPALPGQPLP, the protein stability index stood at 2.41.
